Measured values reported in US20180009871A1 (INTARCIA THERAPEUTICS, published 2018).
Where no end group is shown, it is not given here. [ ]: non-standard residue; d: D form. Aib = CC(C)(N)C(=O)O

Legend:
[1] = biological target: human GLP-1 receptor (GLP-1R) (human, UniProt P43220 24-463); test: cell-based or functional assay
[2] = biological target: human glucagon receptor (GCGR) (human, UniProt P47871 26-477); test: cell-based or functional assay

human GLP-1 receptor (GLP-1R), sequence (P43220 24-463): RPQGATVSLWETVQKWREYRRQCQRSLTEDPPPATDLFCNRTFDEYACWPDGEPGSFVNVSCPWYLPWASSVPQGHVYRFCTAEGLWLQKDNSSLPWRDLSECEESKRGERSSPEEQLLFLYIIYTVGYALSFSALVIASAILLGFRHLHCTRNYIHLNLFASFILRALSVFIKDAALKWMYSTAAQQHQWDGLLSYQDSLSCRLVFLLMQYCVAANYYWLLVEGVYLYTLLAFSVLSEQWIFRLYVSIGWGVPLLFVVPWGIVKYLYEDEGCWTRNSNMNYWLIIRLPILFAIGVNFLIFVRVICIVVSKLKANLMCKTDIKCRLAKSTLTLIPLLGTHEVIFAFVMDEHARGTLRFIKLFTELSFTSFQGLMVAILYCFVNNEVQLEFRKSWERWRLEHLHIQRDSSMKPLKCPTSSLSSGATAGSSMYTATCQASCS

Binder | hGLP1 pEC50 (cAMP) [1] | hGCGR pEC50 (cAMP) [2]
YSHGTFTSDYSKYLD[Aib]KRAQEFVLWLEDEPSSGAPPPS-OH (N-terminus assumed; SMILES CC(C)C[C@H](NC(=O)[C@H](Cc1c[nH]c2ccccc12)NC(=O)[C@H](CC(C)C)NC(=O)[C@@H](NC(=O)[C@H](Cc1ccccc1)NC(=O)[C@H](CCC(=O)O)NC(=O)[C@H](CCC(N)=O)NC(=O)[C@H](C)NC(=O)[C@H](CCCNC(=N)N)NC(=O)[C@H](CCCCN)NC(=O)C(C)(C)NC(=O)[C@H](CC(=O)O)NC(=O)[C@H](CC(C)C)NC(=O)[C@H](Cc1ccc(O)cc1)NC(=O)[C@H](CCCCN)NC(=O)[C@H](CO)NC(=O)[C@H](Cc1ccc(O)cc1)NC(=O)[C@H](CC(=O)O)NC(=O)[C@H](CO)NC(=O)[C@@H](NC(=O)[C@H](Cc1ccccc1)NC(=O)[C@@H](NC(=O)CNC(=O)[C@H](Cc1c[nH]cn1)NC(=O)[C@H](CO)NC(=O)[C@@H](N)Cc1ccc(O)cc1)[C@@H](C)O)[C@@H](C)O)C(C)C)C(=O)N[C@@H](CCC(=O)O)C(=O)N[C@@H](CC(=O)O)C(=O)N[C@@H](CCC(=O)O)C(=O)N1CCC[C@H]1C(=O)N[C@@H](CO)C(=O)N[C@@H](CO)C(=O)NCC(=O)N[C@@H](C)C(=O)N1CCC[C@H]1C(=O)N1CCC[C@H]1C(=O)N1CCC[C@H]1C(=O)N[C@@H](CO)C(=O)O) [Compound A53] | < 9 pEC50 | 11.6 pEC50
YSHGTFTSDYSKYLDIKRAQEFV[Aib]WLEDEPSSGAPPPS-OH (N-terminus assumed; SMILES CC[C@H](C)[C@H](NC(=O)[C@H](CC(=O)O)NC(=O)[C@H](CC(C)C)NC(=O)[C@H](Cc1ccc(O)cc1)NC(=O)[C@H](CCCCN)NC(=O)[C@H](CO)NC(=O)[C@H](Cc1ccc(O)cc1)NC(=O)[C@H](CC(=O)O)NC(=O)[C@H](CO)NC(=O)[C@@H](NC(=O)[C@H](Cc1ccccc1)NC(=O)[C@@H](NC(=O)CNC(=O)[C@H](Cc1c[nH]cn1)NC(=O)[C@H](CO)NC(=O)[C@@H](N)Cc1ccc(O)cc1)[C@@H](C)O)[C@@H](C)O)C(=O)N[C@@H](CCCCN)C(=O)N[C@@H](CCCNC(=N)N)C(=O)N[C@@H](C)C(=O)N[C@@H](CCC(N)=O)C(=O)N[C@@H](CCC(=O)O)C(=O)N[C@@H](Cc1ccccc1)C(=O)N[C@H](C(=O)NC(C)(C)C(=O)N[C@@H](Cc1c[nH]c2ccccc12)C(=O)N[C@@H](CC(C)C)C(=O)N[C@@H](CCC(=O)O)C(=O)N[C@@H](CC(=O)O)C(=O)N[C@@H](CCC(=O)O)C(=O)N1CCC[C@H]1C(=O)N[C@@H](CO)C(=O)N[C@@H](CO)C(=O)NCC(=O)N[C@@H](C)C(=O)N1CCC[C@H]1C(=O)N1CCC[C@H]1C(=O)N1CCC[C@H]1C(=O)N[C@@H](CO)C(=O)O)C(C)C) [Compound A52] | < 9 pEC50 | 12.4 pEC50
YSHGTFTSDYSKYLD[Aib]KRAQEFV[Aib]WLEDEPSSKSPPPS-OH (N-terminus assumed; SMILES CC(C)C[C@H](NC(=O)[C@H](Cc1ccc(O)cc1)NC(=O)[C@H](CCCCN)NC(=O)[C@H](CO)NC(=O)[C@H](Cc1ccc(O)cc1)NC(=O)[C@H](CC(=O)O)NC(=O)[C@H](CO)NC(=O)[C@@H](NC(=O)[C@H](Cc1ccccc1)NC(=O)[C@@H](NC(=O)CNC(=O)[C@H](Cc1c[nH]cn1)NC(=O)[C@H](CO)NC(=O)[C@@H](N)Cc1ccc(O)cc1)[C@@H](C)O)[C@@H](C)O)C(=O)N[C@@H](CC(=O)O)C(=O)NC(C)(C)C(=O)N[C@@H](CCCCN)C(=O)N[C@@H](CCCNC(=N)N)C(=O)N[C@@H](C)C(=O)N[C@@H](CCC(N)=O)C(=O)N[C@@H](CCC(=O)O)C(=O)N[C@@H](Cc1ccccc1)C(=O)N[C@H](C(=O)NC(C)(C)C(=O)N[C@@H](Cc1c[nH]c2ccccc12)C(=O)N[C@@H](CC(C)C)C(=O)N[C@@H](CCC(=O)O)C(=O)N[C@@H](CC(=O)O)C(=O)N[C@@H](CCC(=O)O)C(=O)N1CCC[C@H]1C(=O)N[C@@H](CO)C(=O)N[C@@H](CO)C(=O)N[C@@H](CCCCN)C(=O)N[C@@H](CO)C(=O)N1CCC[C@H]1C(=O)N1CCC[C@H]1C(=O)N1CCC[C@H]1C(=O)N[C@@H](CO)C(=O)O)C(C)C) [Compound A55] | < 9 pEC50 | 12.2 pEC50
YSHGTFTSDYSKYLDLKRAQEFV[Aib]WLEDEPSSGAPPPS-OH (N-terminus assumed; SMILES CC(C)C[C@H](NC(=O)[C@H](CC(=O)O)NC(=O)[C@H](CC(C)C)NC(=O)[C@H](Cc1ccc(O)cc1)NC(=O)[C@H](CCCCN)NC(=O)[C@H](CO)NC(=O)[C@H](Cc1ccc(O)cc1)NC(=O)[C@H](CC(=O)O)NC(=O)[C@H](CO)NC(=O)[C@@H](NC(=O)[C@H](Cc1ccccc1)NC(=O)[C@@H](NC(=O)CNC(=O)[C@H](Cc1c[nH]cn1)NC(=O)[C@H](CO)NC(=O)[C@@H](N)Cc1ccc(O)cc1)[C@@H](C)O)[C@@H](C)O)C(=O)N[C@@H](CCCCN)C(=O)N[C@@H](CCCNC(=N)N)C(=O)N[C@@H](C)C(=O)N[C@@H](CCC(N)=O)C(=O)N[C@@H](CCC(=O)O)C(=O)N[C@@H](Cc1ccccc1)C(=O)N[C@H](C(=O)NC(C)(C)C(=O)N[C@@H](Cc1c[nH]c2ccccc12)C(=O)N[C@@H](CC(C)C)C(=O)N[C@@H](CCC(=O)O)C(=O)N[C@@H](CC(=O)O)C(=O)N[C@@H](CCC(=O)O)C(=O)N1CCC[C@H]1C(=O)N[C@@H](CO)C(=O)N[C@@H](CO)C(=O)NCC(=O)N[C@@H](C)C(=O)N1CCC[C@H]1C(=O)N1CCC[C@H]1C(=O)N1CCC[C@H]1C(=O)N[C@@H](CO)C(=O)O)C(C)C) [Compound A51] | < 9 pEC50 | 12.3 pEC50
YSHGTFTSDYSKYLD[Aib]KRAQEFV[Aib]WLEDEPSSKEPPPS-OH (N-terminus assumed; SMILES CC(C)C[C@H](NC(=O)[C@H](Cc1ccc(O)cc1)NC(=O)[C@H](CCCCN)NC(=O)[C@H](CO)NC(=O)[C@H](Cc1ccc(O)cc1)NC(=O)[C@H](CC(=O)O)NC(=O)[C@H](CO)NC(=O)[C@@H](NC(=O)[C@H](Cc1ccccc1)NC(=O)[C@@H](NC(=O)CNC(=O)[C@H](Cc1c[nH]cn1)NC(=O)[C@H](CO)NC(=O)[C@@H](N)Cc1ccc(O)cc1)[C@@H](C)O)[C@@H](C)O)C(=O)N[C@@H](CC(=O)O)C(=O)NC(C)(C)C(=O)N[C@@H](CCCCN)C(=O)N[C@@H](CCCNC(=N)N)C(=O)N[C@@H](C)C(=O)N[C@@H](CCC(N)=O)C(=O)N[C@@H](CCC(=O)O)C(=O)N[C@@H](Cc1ccccc1)C(=O)N[C@H](C(=O)NC(C)(C)C(=O)N[C@@H](Cc1c[nH]c2ccccc12)C(=O)N[C@@H](CC(C)C)C(=O)N[C@@H](CCC(=O)O)C(=O)N[C@@H](CC(=O)O)C(=O)N[C@@H](CCC(=O)O)C(=O)N1CCC[C@H]1C(=O)N[C@@H](CO)C(=O)N[C@@H](CO)C(=O)N[C@@H](CCCCN)C(=O)N[C@@H](CCC(=O)O)C(=O)N1CCC[C@H]1C(=O)N1CCC[C@H]1C(=O)N1CCC[C@H]1C(=O)N[C@@H](CO)C(=O)O)C(C)C) [Compound A54] | < 9 pEC50 | 12.4 pEC50
